Laboratory results taken from the DeepSol protein solubility set.

Experiment: soluble on expression in E. coli; label from the status in PepcDB or PDB records

| Sequence | soluble on expression in E. coli |
| --- | --- |
| MGSDKIHHHHHHMMKRVLIKPLEPLMFRSQGEFEPLITGSHTAAQSLIIPRPSTIAGMLGYILFNKSSGTGDWLSDLTNLLDTIYGTFIETNGEYLFPLRMGNHLALVDQQHLINLPILLEKEYEQREKGIYELFYDKNKLFQIINHQDRIGISIDKSTRTVKEHYLYSARYLAFKKEVNYVIFIDNDAISDKINGKIVNFGGENRIAKLEVDDYKVDTSIEEEYYLTLSPILIPDEALDDLLDNISDYVTMGKVDKISLGFDIANTKRKEMLTAILEGSIVKRSIIDFIKKEINNNLLDRFTKYEKIGYNTLMNLCKLAFRKILS | not soluble |
| MGKPMQVSRYWRHFREKYRLIGGKCENGHLLFPKRPICPICGSRNIEEFQFSGKGKVITWTIVRNPPSGFEYYKPYPLALVQLEEGPVVLAQLTDVEPEEIKEGMEVEMVTRKIREFDEDGLILYGYKFRPIIKSELEHHHHHH | soluble |
| MAHHHHHHMSGAFGCGSYRSVVAGTQNVPRRMTFYPSAYELIQLHKAHREVIRHFYVRDKIFDNKFPGNALANGLFKFVPNRRENYHMRELMESIRRRSIWMHRIKQQREINAKVVENMEVKYGKKAAASMLCFTTPDSNAYFAPHRYQDVANSWPNYWQHPSVNHVVPKPRWRRHRELGGITRVEDPFAVQASDY | not soluble |
| VRQLSQPLKRLVVAARQFGQGRSVRLPLGPETPSEMAEVYRAFNQMAEDIEQGGRERELMLAGVSHDLRTPLTRLRLSLELLPESEREMVEDMIRDIEDMDAILDQFLAFIRDGRDEPVEEGDLTDLVREVVAPFNQTREQVRMALQPVPAMPLRRVSMKRLLGNLIDNALNHGGGSVEVASYVAGESAAPYVVLSVLDRGQGIDPAEVDSIFNPFIRGDKARGGKGTGLGLAIVKRIAAQHGGSVELRNRDGGGLEARVCLPLGLLLPRGAA | not soluble |
| MGSDKIHHHHHHMYFITLSRQLGTKGTEIAKLVAKELHYDFYDTEAIEKKAGEMGFLDDIRKVDDKPPSPLKQLFSWQTETCLEHLYTVIYDLSRYGNAVVLGRGGNMLFRPIPHALHVRVIASHEKRVQNLLEKVYRRETAVMIMEKSDQERSSFIRFAFNRDWGDPELYDMVLNMDNMTVRSAADTILRAARLRESQCPSRDGMSPLNLMELTAKVKAALANAGFPSNYASPFVNAPGKVRLTGIVHDPREKLAAEMTALKVEGVESVENRIQIAGS | not soluble |
| MGRDSPRDRRHRDRSPERRRRSRSRSRDRQTRRDTRRDDSPKIKREVKEEQFSDNDSPRRRRDDRGGRRDDRRDNRRDDRRDHRDDRGDRDRRDNFRRPDPVREDGKQYGLEKKEENWGKPEEPAKEKEKVNLGTSGALTEDTNTFRGVVIKYNEPPEAKKPNARWRLYPFKGEESLQVLYIHRQSAYLIGRDHKIADIPVDHPSCSKQHAVLQFRSMPFTRDDGTKARRIMPYIIDLGSGNGTFLNEKKIEPQRYIELQEKDMLKFGFSTREYVVMKEREITEEELAEGEDVKKEESD | not soluble |
| GMGIHQYFQSLSDLENIYRCPGKFKYQEHSVAEHSYKVTSIAQFFGAVEEDAGNEVNWRALYEKALNHDYSELFIGDIKTPVKYATTELREMLSEVEESMTKNFISREIPATFQPIYRHLLKEGKDSTLEGKILAISDKVDLLYESFGEIQKGNPENIFVEIYSEALATIYEYREMASVKYFLKEILPDMLAEKGIEKTELPQLTTEITTKALRDE | soluble |
| MSLDEAWKSLEKLRGVKLLPGNKVLLKRGEVFNGELEITGQGIPEDRIYIDAYGDDERKPCIVGYDTSLYAARICNSDYITMQNLEIVNTGRQPLPYRSGLKIECMDYGVSQNIVVNNVTVRDVNGSLVKEKGGGCGIYIVNGGEKKISTFNRLTIENCHILRCTRNAMIWAAYSDRQNWHPSKHTVIRGNLIEEVPGDGIVPIGCDSTLIEYNVMRDCPDMLPDTEAAAGIWPWSCDNTLVQFNEVSGHKAPWDAQGFDSDWNCRGTVIQYNYSHDNYGGLVLVCNDGTADASFNVGNLGTIVRYNVSIGDGVRPEPTRAGMFSPAVHLAGPVKDSRITRNIIHVNRKPAADIDRTMITLDSWGGYPDSTFISGNIFYAPESSRFQLTESTHNFFEGNYYLGRFEKLPEDGKACQSAEIYQKEVLAKDENGYQGLALLMDTVEVTGVKGVFVNKEAIENFFSRLEKEGHHHHHH | not soluble |
| MGVERIKAAFENGKKAFIPYVMGGDGGLEILKERIRFLDEAGASIVEIGIPFSDPVADGPTIQRAGKRALDSGVTVKGIFQALIEVRKEVQIPFVLMTYLNPVLAFGKERFIENCMEAGVDGIIVPDLPYEEQDIIAPLLREANIALIPLVTVTSPIERIKKITSESEGFVYAVTVAGVTGVRQNFKDEIHSYLEKVKSHTHLPVVAGFGISTKEHVEEMVTICDGVVVGSKVIELLENEKREEICEFIQATKQKEEA | not soluble |
| NKSYRSTEQITNFAKALLPDGDQIQAFTRKGDLPKVMIRYGEDAALSSLRSEVEHQLKATNTVAVLTKDLAESKQVYQYLKRYTVTTLMADSDRTMPQGVIVMPIYLAKGLEFDAVVAYDVSATNYPDADSVGILYTIASRAMHHLTLLSIGDVSPLIAQLDPTLFTIEHQVRV | not soluble |
| MEDKATQTPEQTFSMEAALQETEARLEKRVRPGQILTGKVVLVGSEGVAVDIGAKTEGIIPFNQLTTKPLSEEELRNLLSPGDEVKVQVLRVDPETGQILLSRKKIEAQEKWDRIQELYEKGEPVTVTIKERVKGGVVAELDGVQGFMPASQLDLRRVPNLDEFVGQQVLAKIIEFHRRKGRVILSRRAVLEEEQKKAREAFLKSLEPGQVVEGTVVEVTDFGVFVNLGPVDGLVHRSEITWGRFNHPREVIQKGQKVKAQVLSVDPEKERVNLSIKALIPDPWTTVAEKYPVGTRVRGKVVGLTQFGAFVEVEPGLEGLIHISELSWTKRPKHPSEVVKEGDEVEAVVLRLDPEERRLSLGLKQTQPDPWQQLTEKYPPGTVLKGKVTGVTDFGVFVEIEPGIEGLVHVSELDHKRVENPAALFKKGDEMEVVVLNIDPVEQRVSLSRKRLLPPPLPQEEERPRRARSGKERARRKGAPRREDRREYEYGAVAEYNLYDASSVPTTTATVKLGDLYGDLLASLGLEEEAEEKSRG | soluble |
| MNADAPLKSYSGHHSETHKSESKKKKDKKTFEEEDDVENVKRKPAESSDDEVVVVVVKKDQKGKRGKKSKKPKKKQESSDDSSDNSDSSESSDDDKKSKKKKKKSKKDSSDSSDSSDSSDSSDDGKKKKKKKSKKDSSDDSSDSSDSSDSSDSSDDDKKKKKKSKKSKNKGSSSDSSDSSDDSSDDEKPKKKKKKSKKPKKAPKSDEEVTIKIIKKPKKKPEDLERRRHRVKKTEEHEEEKDKEEHHESNDENMEFDTRARGAPSSPKLTRRAKRSESSDDEVELQKTPEIDDNKPSRKDGDHDSDMEESEKSKKSSKKDHNHHHHHCCCGAQNEHEHTHHEEFSKTDKVVNKYHDCAKCQYKCPICT | not soluble |
| KAPLRDMRFVLNEVFEVSRLWAQLPALAEVVDAETAAAILEEAGKVTAGTIAPLNRPGDEEGCQWNAGAVSTPAGFPEAYRTYAEGGWVGVGGDPAYGGMGMPKVISAQVEELVNSANLSFGLYPMLTAGACLALNAHASDELKDKYLPNMYAGIWAGSMCLTEPHAGTDLGIIRTRAEPQADGSYKISGTKIFITGGEHDLTENIIHLVLAKLPDAPAGPKGISLFLVPKVLVNADGSLGEKNSLGCGSIEHKMGIKASATCVMNFDGATGWLVGEVNKGLAAMFTMMNYERLGVGIQGLATGERSYQSAIEYARERIQSRAPTGPVAKDKAADPIIVHPDVRRMLLTMKALNEGGRAFSSYVAMQLDTAKYSEDAVTRKRAEELVALLTPVAKAFLTDMGLETTIHGQQIFGGHGFIREWGQEQLVRDCRITQIYEGTNGIQALDLVGRKVIGSGGAFSRHFTDEIKAFVASADEALGEFSKPLAAAVENLEELTAWLLDRAKGNPNEIGAASVEYLHVFGYTAYAYMWALMARTALAKQGEDDFYASKLGTARFYFARLLPRIHSLSASVRAGS | not soluble |
| MGNVMLSKRKSGSMADDTGEHPVCFNCTLRVDQTIHVKCFECPLRICILCFQCGAESPPHRRGHNYELVKPTSNPEAMSWTHEDEFELLKAAHKFKMGNWGEIAESIGRGRKDGHNCKDYFEKHFVRGWIGQFSIKSSSWDRIKYGMYINQTLDSVLQKNCLESTERMLLIRDAVRASGESWDENDPKLAIKVQQVLEQYVQKVIDGDIETKYERPKFLTNQYETELSPDDCDPDNERDMKSKRSVKQEINTDDSDNDNSPGPSSSCRKKGPPSPKRRKTTRVMRESSSDSDDDKSQASDKDTYHGMERETEEEDPPSAFETAQEFDTEDEEEEKKPKRGTASSSKRRKRRRMWVSKKDRRLHEFRKKMNQEVKELRSAYPRLLHESGVSKSETRPKMRRSDELKILGYNNEREELECEWFNEAEQLISRLTISATEPQKDQRLDMENDIKFARLRHYVRLLGIRKAKRNTVLEHDKINEFMKFYQEACYAAAKRPVSQQEIMDSRTEKEKLLAMTQQFLTRDEYRSLRASIERIDNVVERIEVLQDLQKNGETTLKNAPVERKSKKKMRKIDCEQKKKIATEWSKFKKWHTEGWE | not soluble |
| GERLTIEDGLYLYETSDLLGVAQLANKVNSEKNGDHVYFIENMYINPTNVCEANCSFCGFKRKPGQEGAYTMDSETLLRYVEERWNDNIREFHIVGGHNTDVPFDYYLDTIRTLKKNFPQVTVKAYTGAEIEFFSRLAGISMKEVLEELIKAGLDTLPGGGAEILTERYRAKMSPDKASTDQWLEAHEIAHGLGLKTHATMLYGSIESNEERLIHMDRVRQLQDKTNGYMVFIPLAMQPRSVKAGLKRRTSAFDDMRTIAISRLMLDNIDHIKAYWINIGVQLTQMALTFGSDDIHGTLIEERISHSVGALTSQGITRDELIHLIKSANKTPVER | not soluble |
| NTGIVSSFFTYTGPAHGTQWDEIDIEFLGKDTTKVQFNYYTNGVGGHEKVISLGFDASKGFHTYAFDWQPGYIKWYVDGVLKHTATANIPSTPGKIMMNLWNGTGVDDWLGSYNGANPLYAEYDWVKYTSNQTGGSFFEPFNSYNSGTWEKADGYSNGGVFNCTWRANNVNFTNDGKLKLGLTSSAYNKFDCAEYRSTNIYGYGLYEVSMKPAK | soluble |
| MGHHHHHHSHSLHYIHPYQPNEYLKALVAVGEICQDYDSDKMFPAFGFGARIPPEYTVSHDFAINFNEDNPECAGIQGVVEAYQSCLPKLQLYGPTNIAPIIQKVAKSASEETNTKEASQYFILLILTDGVITDMADTREAIVHASHLPMSVIIVGVGNADFSDMQMLDGDDGILRSPKGEPVLRDIVQFVPFRNFKHASPAALAKSVLAEVPNQVVDYYNGKGIKPKCSSEMY | soluble |
| MPIMLEDYQKNFLELAIECQALRFGSFKLKSGRESPYFFNLGLFNTGKLLSNLATAYAIAIIQSDLKFDVIFGPAYKGIPLAAIVCVKLAEIGGSKFQNIQYAFNRKEAKDHGEGGIIVGSALENKRILIIDDVMTAGTAINEAFEIISNAKGQVVGSIIALDRQEVVSTDDKEGLSATQTVSKKYGIPVLSIVSLIHIITYLEGRITAEEKSKIEQYLQTYGASA | soluble |
| MAHHHHHHMLMCAGRKRFYFSLPSSRALKNIVKLPLLEREDKQKIIHIWKEKYQNDKYVVADHIHISKYEQIKNNCKNNSHFIIPQRNQNGYINFYSQFIDHKLLFITALEEYNKLRANSTPYVTLHFFDELKSREIILTKLNIVNNVITKNQAIKFYNYILSFYSDANYFPYVCKFNNDSRNFHYDAFIDKFKHLC | not soluble |
| PLENQELTPLFGQPDWFLGILPSQAGNLKVLDTARWVMPERYRDDYRDGLKYVISVQGYEWGLAVHQVSRSIRLDPAEVKWRSQRSQRPWLAGTVIEH | not soluble |
